Measured values: patent publication US20240116985A1 (published 2024)
Starred links: 1 amine or outer side, 2 acyl side, 3 side chain; linkers in the order of their positions; H or OH if unused. Positions of bridges follow the written chain, without caps; N, C: chain ends. Non-standard residues stand in square brackets, D forms with d. Primed or numbered codes have the meaning given here. B5(4) = 2,2-bis(4-pentenyl)glycine = 2-amino-2-(pent-4-en-1-yl)hept-6-enoic acid (stitching residue), C=CCCCC(CCCC=C)(N[*:1])C(=O)[*:2]; B5(21) = 2-amino-2-(pent-4-en-1-yl)hept-6-enoic acid, bis(4-pentenyl)glycine (stitching residue), C=CCCCC(CCCC=C)(N[*:1])C(=O)[*:2]; SeN = (S)-5-(((allyloxy)carbonyl)(methyl)amino)-2-amino-2-methylpentanoic acid, C=CCOC(=O)N(C)CCC[C@](C)(N[*:1])C(=O)[*:2]; RdN = (R)-4-(((allyloxy)carbonyl)(methyl)amino)-2-amino-2-methylbutanoic acid, C=CCOC(=O)N(C)CC[C@@](C)(N[*:1])C(=O)[*:2]; SdN = (S)-4-(((allyloxy)carbonyl)(methyl)amino)-2-amino-2-methylbutanoic acid, C=CCOC(=O)N(C)CC[C@](C)(N[*:1])C(=O)[*:2]; PyrS = (S)-1-((allyloxy)carbonyl)-3-aminopyrrolidine-3-carboxylic acid, C=CCOC(=O)N1CC[C@@](N[*:1])(C(=O)[*:2])C1; B5 = 2-amino-2-(pent-4-en-1-yl)hept-6-enoic acid, C=CCCCC(CCCC=C)(N[*:1])C(=O)[*:2]; B5(28) = 2,2-bis(4-pentenyl)glycine, C=CCCCC(CCCC=C)(N[*:1])C(=O)[*:2]; Phe(3-CF3) = N[C@@H](Cc1cccc(C(F)(F)F)c1)C(=O)O; S7 = C[C@@](CCCCCC=[*:3])(N[*:1])C(=O)[*:2]; Phe(3-F) = N[C@@H](Cc1cccc(F)c1)C(=O)O; Phe(4-F) = N[C@@H](Cc1ccc(F)cc1)C(=O)O; αAllylPro = C=CC[C@@]1(C(=O)O)CCCN1; R8 = C=CCCCCCC[C@@](C)(N)C(=O)O; S8 = C=CCCCCCC[C@](C)(N)C(=O)O; Aib = CC(C)(N)C(=O)O

T1: beta-Catenin (full-length, Uniprot ID P35222) (Homo sapiens (Human), UniProt P35222 1-781)
T1 construct: also called bCat; B-Catenin
T1 sequence: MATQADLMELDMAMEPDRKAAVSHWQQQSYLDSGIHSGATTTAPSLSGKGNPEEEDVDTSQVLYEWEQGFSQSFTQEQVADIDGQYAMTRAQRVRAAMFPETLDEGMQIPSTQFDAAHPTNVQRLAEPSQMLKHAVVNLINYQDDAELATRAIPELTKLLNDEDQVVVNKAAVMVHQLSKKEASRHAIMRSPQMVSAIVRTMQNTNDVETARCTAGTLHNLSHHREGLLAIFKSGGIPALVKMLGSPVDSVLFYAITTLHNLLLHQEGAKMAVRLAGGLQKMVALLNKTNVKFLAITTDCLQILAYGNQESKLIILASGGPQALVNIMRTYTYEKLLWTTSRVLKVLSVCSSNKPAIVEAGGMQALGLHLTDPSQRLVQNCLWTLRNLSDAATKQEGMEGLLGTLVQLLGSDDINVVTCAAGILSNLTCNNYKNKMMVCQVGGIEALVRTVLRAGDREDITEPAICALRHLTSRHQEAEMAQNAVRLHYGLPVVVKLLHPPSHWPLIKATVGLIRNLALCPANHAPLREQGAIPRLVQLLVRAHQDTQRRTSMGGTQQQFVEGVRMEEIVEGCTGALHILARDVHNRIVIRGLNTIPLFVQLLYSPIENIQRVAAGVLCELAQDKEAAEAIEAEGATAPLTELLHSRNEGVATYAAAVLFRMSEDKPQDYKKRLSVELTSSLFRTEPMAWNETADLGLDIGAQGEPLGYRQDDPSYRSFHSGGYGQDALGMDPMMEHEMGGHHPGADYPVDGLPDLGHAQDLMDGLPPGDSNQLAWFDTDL

T2: full-length beta-Catenin (Uniprot ID P35222) (Homo sapiens (Human), UniProt P35222 2-781)
T2 construct: Used full-length in both the FP and the AlphaScreen assay; also called B-Catenin; bCat
T2 sequence: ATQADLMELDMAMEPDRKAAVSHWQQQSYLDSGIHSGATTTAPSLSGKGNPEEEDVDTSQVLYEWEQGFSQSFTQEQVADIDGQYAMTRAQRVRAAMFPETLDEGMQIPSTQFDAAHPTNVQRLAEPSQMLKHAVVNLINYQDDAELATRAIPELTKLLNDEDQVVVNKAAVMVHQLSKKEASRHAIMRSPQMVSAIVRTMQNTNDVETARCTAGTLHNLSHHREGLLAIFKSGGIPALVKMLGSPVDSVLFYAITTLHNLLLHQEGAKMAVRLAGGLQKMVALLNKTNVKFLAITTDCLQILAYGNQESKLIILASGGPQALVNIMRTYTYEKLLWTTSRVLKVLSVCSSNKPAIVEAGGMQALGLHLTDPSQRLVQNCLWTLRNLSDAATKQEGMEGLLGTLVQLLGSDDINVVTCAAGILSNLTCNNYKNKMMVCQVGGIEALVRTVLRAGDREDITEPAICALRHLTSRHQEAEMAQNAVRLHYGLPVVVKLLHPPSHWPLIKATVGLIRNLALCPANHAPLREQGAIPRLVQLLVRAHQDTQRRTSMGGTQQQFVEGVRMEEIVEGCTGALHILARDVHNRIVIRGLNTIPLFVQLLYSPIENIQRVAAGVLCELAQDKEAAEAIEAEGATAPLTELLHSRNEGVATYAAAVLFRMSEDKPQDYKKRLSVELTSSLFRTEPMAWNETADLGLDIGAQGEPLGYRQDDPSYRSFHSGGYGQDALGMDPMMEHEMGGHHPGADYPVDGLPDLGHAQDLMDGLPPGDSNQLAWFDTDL

T3: full-length beta-Catenin (Uniprot ID P35222) (Homo sapiens (Human), UniProt P35222 2-781)
T3 construct: also called B-Catenin; bCat
T3 sequence: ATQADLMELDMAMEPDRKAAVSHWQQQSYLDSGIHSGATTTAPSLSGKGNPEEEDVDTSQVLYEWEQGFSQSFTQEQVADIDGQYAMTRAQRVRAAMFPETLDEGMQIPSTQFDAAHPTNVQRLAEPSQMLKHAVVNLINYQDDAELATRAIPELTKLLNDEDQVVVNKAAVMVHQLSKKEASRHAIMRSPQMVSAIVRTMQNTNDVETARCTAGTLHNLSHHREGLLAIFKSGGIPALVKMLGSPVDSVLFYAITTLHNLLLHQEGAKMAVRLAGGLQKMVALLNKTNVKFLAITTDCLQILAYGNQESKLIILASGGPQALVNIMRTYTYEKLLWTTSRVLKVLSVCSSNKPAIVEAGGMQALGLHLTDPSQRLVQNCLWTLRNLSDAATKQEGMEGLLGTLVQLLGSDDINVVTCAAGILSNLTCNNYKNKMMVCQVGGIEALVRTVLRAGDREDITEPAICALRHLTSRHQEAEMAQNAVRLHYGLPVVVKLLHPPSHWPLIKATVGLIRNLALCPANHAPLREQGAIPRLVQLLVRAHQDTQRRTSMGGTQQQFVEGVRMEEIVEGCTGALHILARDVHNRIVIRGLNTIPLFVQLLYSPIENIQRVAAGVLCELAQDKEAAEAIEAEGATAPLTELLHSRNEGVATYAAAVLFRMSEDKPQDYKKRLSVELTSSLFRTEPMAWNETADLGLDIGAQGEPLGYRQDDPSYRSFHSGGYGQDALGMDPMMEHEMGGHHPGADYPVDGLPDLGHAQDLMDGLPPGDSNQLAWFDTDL

B1: I-250: Ac-PL3-Asp-Ala-B5-Asp-Asp-Ala-Ala-Phe-Val-S8-3F3MeF-Trp-Gln-NH2 (peptide)
peptide: Ac-[αAllylPro]DA[B5]DDAAFV[S8][Phe(3-CF3)]WQ-NH2
modifications: staple 1-4, 4-11
notes: These are separate isomer compositions
B2: I-254: Ac-PL3-Asp-Ala-B5-Asp-Asp-Ala-Ala-Phe-Val-S8-4F3MeF-Trp-Gln-NH2 (peptide)
peptide: XDAXDDAAFVXFWQ
modifications: not fully specified; N-terminal Ac; PL3 at position 1; B5 at position 4; S8 at position 11; 4F3MeF at position 12; C-terminal NH2; stapled by olefin metathesis (PL3-B5 and B5-S8)
notes: as for B1
B3: I-260: Ac-PL3-Asp-Ala-B5-Asp-Asp-Ala-Ala-Phe-Val-S8-3FF-Trp-Gln-NH2 (peptide)
peptide: Ac-[αAllylPro]DA[B5(4)]DDAAFV[S8][Phe(3-F)]WQ-NH2
modifications: staple 1-4, 4-11
notes: Stapled peptide
B4: I-261: Ac-PL3-Asp-Ala-B5-Asp-Asp-Ala-Ala-Phe-Val-S8-4FF-Trp-Gln-NH2 (peptide)
peptide: Ac-[αAllylPro]DA[B5(4)]DDAAFV[S8][Phe(4-F)]WQ-NH2
modifications: staple 1-4, 4-11
notes: Stapled peptide
B5: I-262: Ac-PL3-Asp-Ala-B5-Asp-Asp-Ala-Ala-Phe-Val-S8-34FF-Trp-Gln-NH2 (peptide)
peptide: XDAXDDAAFVXFWQ
modifications: not fully specified; N-terminal Ac; PL3 at position 1; B5 at position 4; S8 at position 11; 34FF at position 12; C-terminal NH2; stapled by olefin metathesis (PL3-B5 and B5-S8)
notes: It is the earlier-eluting isomer composition
B6: I-263: Ac-PL3-Asp-Ala-B5-Asp-Asp-Ala-Ala-Phe-Val-S8-34FF-Trp-Gln-NH2 (peptide)
peptide: XDAXDDAAFVXFWQ
modifications: not fully specified; N-terminal Ac; PL3 at position 1; B5 at position 4; S8 at position 11; 34FF at position 12; C-terminal NH2; stapled by olefin metathesis (PL3-B5 and B5-S8)
notes: It is the later-eluting isomer composition
B7: I-264: Ac-PL3-Asp-Ala-B5-Asp-Asp-Ala-Ala-3FF-Val-S8-Phe-Trp-Gln-NH2 (peptide)
peptide: Ac-[αAllylPro]DA[B5(4)]DDAA[Phe(3-F)]V[S8]FWQ-NH2
modifications: staple 1-4, 4-11; not fully specified; printed as Ac-PL3-Asp-Ala-B5-Asp-Asp-Ala-Ala-3FF-Val-S8-Phe-Trp-Gln-NH2
notes: as for B5
B8: I-54 (peptide)
peptide: Ac-[αAllylPro]DA[B5(21)]DDAAFV[SeN]FWQ-NH2
modifications: staple 1-4, 4-11
notes: Stapled (stitched) peptide; also called Ac-PL3-Asp-Ala-B5-Asp-Asp-Ala-Ala-Phe-Val-SeN-Phe-Trp-Gln-NH2
B9: I-55 (peptide)
peptide: Ac-[αAllylPro]DA[B5(4)]DDAAFV[SdN]FWQ-NH2
modifications: staple 1-4, 4-11
notes: Stapled (stitched) peptide; also called Ac-PL3-Asp-Ala-B5-Asp-Asp-Ala-Ala-Phe-Val-SdN-Phe-Trp-Gln-NH2
B10: I-64 (peptide)
peptide: Ac-ADI[RdN]DDAAFQ[S7]FWH-NH2
modifications: staple 4-11; not fully specified
notes: Stapled peptide; also called Ac-Ala-Asp-Ile-RdN-Asp-Asp-Ala-Ala-Phe-Gln-S7-Phe-Trp-His-NH2
B11: I-66 (peptide)
peptide: Ac-ADI[RdN]DEAAFQ[S7]FWH-NH2
modifications: staple 4-11; not fully specified
notes: Stapled peptide; also called Ac-Ala-Asp-Ile-RdN-Asp-Glu-Ala-Ala-Phe-Gln-S7-Phe-Trp-His-NH2
B12: I-67 (peptide)
peptide: Ac-ADI[RdN]DEAAFQ[S7]FWH-NH2
modifications: staple 4-11
notes: as for B11
B13: I-78 (peptide)
peptide: Ac-FDA[R8]DDAA[Phe(4-F)]V[PyrS]FWQ-NH2
modifications: staple 4-11
notes: Stapled peptide; also called Ac-Phe-Asp-Ala-R8-Asp-Asp-Ala-Ala-4FF-Val-PyrS-Phe-Trp-Gln-NH2
B14: I-133 (peptide)
peptide: XDAXDEAAFVXFWX
modifications: not fully specified; as printed: Ac-PL3-Asp-Ala-B5-Asp-Glu-Ala-Ala-Phe-Val-S8-Phe-Trp-Aib-NH2; staples PL3(1)-B5(4) and B5(4)-S8(11)
notes: Stitched (two-staple) peptide composition
B15: I-134 (peptide)
peptide: Ac-[αAllylPro]DA[B5(28)]DEAAFV[S8]FW[Aib]-NH2
modifications: staple 1-4, 4-11
notes: as for B14

Legend:
[1] = target: T1, beta-Catenin (full-length, Uniprot ID …); assay: fluorescence polarization competition: peptide titrated against 10 nM full-length beta-catenin + 10 nM 5FAM-labeled TCF4 residues 10-53 probe
Procedure: (§1) The plate was incubated protected from light for 60 minutes at 20° C. prior to read. Reads were performed on a CLARIOstar plate reader (BMG Labtech) in duplicate, and data were fitted to a 1:1 binding model with hill slope using an in-house script. All provided concentrations are final concentrations.

[2] = target: T2, full-length beta-Catenin (Uniprot ID …); assay: fluorescence polarization competition; full-length beta-catenin, 5FAM-TCF4(10-53) probe
Procedure: as §1

[3] = target: T2, full-length beta-Catenin (Uniprot ID …); assay: AlphaScreen competition; full-length beta-catenin, biotin-TCF4(10-53) probe
Procedure: as §1, with “Equal volume of the titrated peptide was added to the” for “The”, “and” for “was”, “incubated for 15 minutes at 20° C. Then 4 uL of donor and 4 uL acceptor beads at 10 ug/mL were added to the plate, for a 16 uL reaction pool and” for “incubated”

[4] = target: T3, full-length beta-Catenin (Uniprot ID …); assay: fluorescence polarization competition; 5FAM-TCF4(10-53) probe with full-length beta-catenin
Procedure: as §1

Row | Binder | IC50 [1] [µM] | EC50 [2] [µM] | EC50 [3] [µM] | further results
1 | B1 | 5 |  |  | 
2 | B2 | 5 |  |  | 
3 | B3 | 5 |  |  | 
4 | B4 | 5 |  |  | 
5 | B5 | 5 |  |  | 
6 | B6 | 5 |  |  | 
7 | B7 | 5 |  |  | 
8 | B8 |  | 3.19 | 0.482 | 
9 | B9 |  | 5 | 2.38 | 
10 | B10 |  | 4.25 |  | 
11 | B11 |  | 1.09 | 0.175 | 
12 | B12 |  | 1.23 | 0.154 | 
13 | B13 |  | 5 | 7.48 | 
14 | B14 |  |  |  | EC50 [4]: 5 µM
15 | B15 |  |  |  | EC50 [4]: 2.7 µM
